Measured values published in PMC11543927, “Subtleties in Clathrin heavy chain binding boxes provide selectivity among adaptor proteins of budding yeast” (Nature Communications, 2024).

B1: Clathrin heavy chain fused to mScarlet (Chc-mScarlet), wild type [Saccharomyces cerevisiae] / Ent2 endogenously tagged with mNeonGreen (Ent2-mNeonGreen) [Saccharomyces cerevisiae (endogenous in MK100)] (parent complex)
chain 1: MSDLPIEFTELVDLMSLGISPQFLDFRSTTFESDHFVTVRETKDGTNSVAIVDLAKGNEVTRKNMGGDSAIMHPSQMVISVRANGTIVQIFNLETKSKLKSFTLDEPVIFWRWLSETTLGFVTARSILTSNVFDGNVNAKPQLLTLRHANLNNTQIINFVANKNLDWFAVVGILQENGRIAGRIQLFSKQRNISQAIDGHVAIFTNILLEGNGSTPVQVFVTGNRNATTGAGELRIIEIDHDASLPSQYQKETTDIFFPPDATNDFPIAVQVSEKYGIIYLLTKYGFIHLYELETGTNLFVNRITAESVFTAAPYNHENGIACINKKGQVLAVEISTSQIVPYILNKLSNVALALIVATRGGLPGADDLFQKQFESLLLQNDYQNAAKVAASSTSLRNQNTINRLKNIQAPPGAISPILLYFSTLLDKGKLNKEETIELARPVLQQDRKQLFEKWLKEDKLECSEELGDIVKPFDTTLALACYLRAGAHAKVISCLAELQQFEKIIPYCQKVGYQPNFLVLISSLIRSSPDRASEFAVSLLQNPETASQIDIEKIADLFFSQNHIQQGTSLLLDALKGDTPDQGHLQTRVLEVNLLHAPQVADAILGNNIFSHYDKPTIASLSEKAGLYQRALENYTDIKDIKRCVVHTNALPIDWLVGYFGKLNVEQSLACLKALMDNNIQANIQTVVQVATKFSDLIGPSTLIKLFEDYNATEGLYYYLASLVNLTEDKDVVYKYIEAAAKMKQYREIERIVKDNNVYDPERVKNFLKDANLEDQLPLVIVCDRFDFVHEMILYLYKSQNLKFIETYVQQVNPSKTAQVVGALLDMDCDEAFIQSLLQSVLGQVPINELTTEVEKRNRLKILLPFLEQSLSQGIQDQAVYNALAKIYIDSNNSPEKFLKENDQYDTLDVGHYCEKRDPYLAYIAYEKGQNDDDLIRITNENSMYKYQARYLLERSDLDLWNKVLNQENIHRRQLIDSVISVGIPELTDPEPVSLTVQAFMTNGLKLELIELLEKIILEPSPFNENVALQGLLLLSAIKYEPTKVSSYIEKLDNYDADEIAPLCIEHDLKEEAFEIYDKHEMYGKALKVLIEDIMSLDRAASYADKINTPELWSQIGTAQLDGLRIPDAIESYIKAEDPSNYENVIDIAEQAGKYEELIPFLLMARKTLKEPKIDGALILAYAELNKIHEIENLLAGSNVANLDHVGDKLFENKEYKAARLCYSAVSNYSKLASTLVYLGDYQAAVDTARKASNIKVWKLVNDACIEKKEFKLAQICGLNLIVHAEELDELVERYESNGYFEELISLFEAGLGLERAHMGMFTELAILYSKYEPDKTFEHLKLFWSRINIPKVIRAVEQAHLWSELVFLYAHYDEWDNAALTLIEKSTKDLDHAYFKEVVVKVSNLEIYYKAINFYVKFHPSLLVDLLTSLTPRLDIPRTVKIFSKSDNLPLIKPFLINVLPKNNSVVNQAYHDLMIEEEDYKALQDAVDSYDKFDQLGLASRLESHKLIFFKKIGALLYRRNKKWAKSLSILKEEKLWKDAIETAAISQDPKVVEALLTYFVETGNREGFVALLYAAYNLVRIEFVLEISWMNSLEDYIKPFEISIKKEQNDSIKKITEELAKKSGSNEEHKDGQPLMLMNSAMNVQPTGF
chain 2: MSKQFVRSAKNMMKGYSSTQVLVRDATANDSRTPSIDTLDDLAQRSYDSVDFFEIMDMLDKRLNDKGKYWRHVAKSLTVLDYLVRFGSENCVLWCRENFYVIKTLREFRHENESGFDEGQIIRVKAKELVSLLNDEERLREERSMNTRNRRANRAARPRPRRQRTRSNPHDSSPSYQDDLEKALEESRITAQEDEQRRRELAQYDDEDPDFQAALQLSKEEEELKQLQELQRLQKQQQSLSQFQAPLQQQQPQQQPAYYDIFGNPISQDEYLQYQYQQDQEQAMAQQRWLDQQQEQQQLAEQQYFQQQQQAAAAASALQQQQTAANMQQQQQQPADFQQPLPTGSNNPFSMDNLERQKQEQQHAQLQRQQEEARQQQEQLKLQQLQRQQQEEAQLHQKRQEEAQLQQQQAQLLQQQAQFQQQQPLKQTRTGNQSISDKYSDLNTLLATGTGIDTFGNTGEARIPAQHTKTGTFINSQGTGYKQVTNEPKNNPFLSNQYTGLPSTNIVPTQTGYGFGNQPQSPPTNSPQQNPTGISYSQPQQQQQPQQQPQYMQNFQQQQPQYAQNFQQQPQYTQNYQQQPQYIQPHQQQQQQQQQQQQQQGYTPDQGVSLIDL
B2: Clathrin heavy chain fused to mScarlet (Chc-mScarlet), wild type [Saccharomyces cerevisiae] / Ent1 endogenously tagged with mNeonGreen (Ent1-mNeonGreen) [Saccharomyces cerevisiae (endogenous in MK100)] (parent complex)
chain 1: B1 chain 1
chain 2: MSKQFVRSAKNLVKGYSSTQVLVRNATSNDNHQVSKDSLIELAEKSYDSADFFEIMDMLDKRLNDKGKYWRHIAKALTVIDYLIRFGSENCVLWCRENLYIIKTLKEFRHEDDEGIDQGQIVRVKAKELTALLSDDERLNEERNMNIKGRNRKGRRRRGTGRSDENDDDLQRAISASRLTAEEDERRRKQDEDYETALQLSKEEEELKRLQDLQRMQQQQGQQQLQQPMYYDIFGNPITPEEYAQFQLQQQQQQQQQQLQQQPMYYDVFGNPITPEELAQFQQQQQLQEQQYLASMQQQQQAMSNNPFAKSEQSSSSPKRNQLVAASSPQQLQQQKQQEPLIQNRTGNQSMTDKYSKLNELLATGTGIDTFGNVGEARIPAQHTKTGTFINSQGTGYRQVSDDPNHNPFLNSQYTGLPSTSVVPTQTGYGFGNQSQQQSQNNGSNNRGYTLIDL

Variants of: B1
Assay: FRET acceptor photobleaching (in vivo); room temperature (21 °C); trimmed mean; n = 117; parent: 9.02

Row | Variant | response [%]
1 | chain 1 F26A, chain 1 K63E, chain 1 I87D, chain 1 Q89A, chain 1 K98E, chain 1 Q155A | 7.18

Variants of: B1
Assay: FRET acceptor photobleaching (in vivo); room temperature (21 °C); trimmed mean; n = 127; parent: 9.02

Row | Variant | response [%]
2 | chain 1 F26A, chain 1 K63E, chain 1 I87D, chain 1 Q89A, chain 1 K98E, chain 1 Q155A, chain 1 Q195A, chain 1 I197T, chain 1 K251E | 7.03

Variants of: B1
Assay: FRET acceptor photobleaching (in vivo); room temperature (21 °C); trimmed mean; n = 98; parent: 9.02

Row | Variant | response [%]
3 | chain 1 K63E, chain 1 I87D, chain 1 Q89A, chain 1 K98E | 9.99

Variants of: B1
Assay: FRET acceptor photobleaching (in vivo); room temperature (21 °C); trimmed mean; n = 126; parent: 9.02

Row | Variant | response [%]
4 | chain 1 F26A, chain 1 Q155A | 10.1

Variants of: B2
Assay: FRET acceptor photobleaching (in vivo); room temperature (21 °C); trimmed mean; n = 103; parent: 7.87

Row | Variant | response [%]
5 | chain 1 F26A, chain 1 Q155A, chain 1 Q195A, chain 1 I197T, chain 1 K251E | 8.19

Variants of: B2
Assay: FRET acceptor photobleaching (in vivo); room temperature (21 °C); trimmed mean; n = 98; parent: 7.87

Row | Variant | response [%]
6 | chain 1 F26A, chain 1 Q155A | 8.23

Variants of: B2
Assay: FRET acceptor photobleaching (in vivo); room temperature (21 °C); trimmed mean; n = 102; parent: 7.87

Row | Variant | response [%]
7 | chain 1 Q195A, chain 1 I197T, chain 1 K251E | 8.6
